Where a chain is given by its changes, count along the chain named.
B1: MI3-26 (scFv)
scFv: MASMTGGQQMGQVTLKECGPGILQPSQTLSLTCSFSGFSLSTSGMSVGWIRQPSGKGLKWLAHIWWNDDKYYNPAPKSRLTISKDTSNNQVFLKIASVVTADTATYYCARIARISYYFDYWGQGTTLTVSSAKTSRPSGGGGSGGGGTGGVGSRGGSSIEGRDIQLTQPPSFLSASLGDRVSLTCRVSQDIGSSLNWLQQDPDGTIKRLIYAISSIDSGVPKRFSGNRSESDYSLTISSLESEDFVDYYCLQYASTPPTFGGGTKLEIKRDYKDDDDKRTSRVRLHHHHHHHKK
notes: Single-chain antibody translated in wheat germ extract
B2: MI3-41 (scFv)
scFv: MASMTGGQQMGQVTLKESGPGILQPSQTLSLTCSFSGFSLSTSGMGVGWIRQPSGKGLEWLAHIWRDDVKRYNPALKSRLTISKDTSSSQVFLKIASMDTADTATYYCARIYYYGPYFDVWGAGTTVTVSLAKTSRPSGGGGSGRGGSGGAGSGGGGSIEGRDIQLTQPPSFLSASLGDRVSLTCRVSQDIGSSLNWLQQDPDGTIKRLIYAISSIDSGVPKRFSGNRSESDYSLTISSLESEDFVDYYCLQYASTPPTFGGGTKLEIKRDYKDDDDKRTSRVRLHHHHHHHKK
notes: as for B1
B3: MI3-28 (scFv)
scFv: B2 scFv with A109P, R145G
notes: as for B1
B4: MI3-15 (scFv)
scFv: B2 scFv with S234F
notes: as for B1
B5: MI3-34 (scFv, V domains shown)
VH: QVTLKESGPGILQPSQTLSLTCSFSGFSLSTSGMGVGWIRQPSGKGLEWLAHIWQDNVKRYNPALKSRLSISKDTSSSQVFLKIASMDTADTATYYCARIYYYGPYFDVWGAWTTVTVSL
notes: as for B1
B6: MI3-5 (scFv)
scFv: B2 scFv with S18T, A109T, R145G, L173F, V181A, C185R, P258S
notes: as for B1
B7: MI3-42 (scFv)
scFv: B2 scFv with M10K, R145G, I206V
notes: as for B1

Biological target: T1, angiotensin II-biotin (UniProt P01019 25-32, biotin attached (angiotensin II-biotin; chemical structure only in Figure 3))
T1 construct: Captured through its biotin on streptavidin (Biacore chip, ELISA plate) or on NeutrAvidin resin (selection); P01019 is the human angiotensinogen precursor, and angiotensin II is only a fragment of it; also called アンジォテンシン II-ピオチン
Experiment: SPR (Biacore 3000), angiotensin II-biotin on streptavidin chip

| binding result | Binder |
| --- | --- |
| binds | B1 |
| binds | B2 |
| binds | B3 |
| binds | B4 |
| binds | B5 |
| binds | B6 |
| binds | B7 |
